Tests used:
Assay in all cases: BLI
[1] = target: LRX1^ΔE-FLAG (Arabidopsis thaliana) (UniProt O65375)
[2] = target: LRX4^ΔE-FLAG (Arabidopsis thaliana) (UniProt Q9LHF1)
[3] = target: LRX5^ΔE-FLAG (Arabidopsis thaliana) (UniProt Q9SN46)

Measured: Kd

Chain of UniProt Q9LHF1 (Q9LHF1 26-494, stated change not applied): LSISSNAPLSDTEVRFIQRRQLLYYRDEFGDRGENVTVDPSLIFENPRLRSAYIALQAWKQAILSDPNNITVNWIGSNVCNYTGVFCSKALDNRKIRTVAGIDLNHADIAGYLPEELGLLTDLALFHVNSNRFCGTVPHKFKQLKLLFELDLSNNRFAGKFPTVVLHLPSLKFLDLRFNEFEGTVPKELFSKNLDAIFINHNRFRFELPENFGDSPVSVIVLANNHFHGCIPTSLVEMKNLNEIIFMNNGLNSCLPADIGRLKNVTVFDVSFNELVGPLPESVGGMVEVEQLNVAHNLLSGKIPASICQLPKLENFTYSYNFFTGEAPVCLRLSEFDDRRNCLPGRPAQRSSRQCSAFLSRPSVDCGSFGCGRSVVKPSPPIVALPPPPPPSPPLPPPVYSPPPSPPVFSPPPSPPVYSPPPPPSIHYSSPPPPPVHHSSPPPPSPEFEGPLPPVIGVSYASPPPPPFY
Chain of UniProt Q9SN46 (Q9SN46 32-857, stated change not applied): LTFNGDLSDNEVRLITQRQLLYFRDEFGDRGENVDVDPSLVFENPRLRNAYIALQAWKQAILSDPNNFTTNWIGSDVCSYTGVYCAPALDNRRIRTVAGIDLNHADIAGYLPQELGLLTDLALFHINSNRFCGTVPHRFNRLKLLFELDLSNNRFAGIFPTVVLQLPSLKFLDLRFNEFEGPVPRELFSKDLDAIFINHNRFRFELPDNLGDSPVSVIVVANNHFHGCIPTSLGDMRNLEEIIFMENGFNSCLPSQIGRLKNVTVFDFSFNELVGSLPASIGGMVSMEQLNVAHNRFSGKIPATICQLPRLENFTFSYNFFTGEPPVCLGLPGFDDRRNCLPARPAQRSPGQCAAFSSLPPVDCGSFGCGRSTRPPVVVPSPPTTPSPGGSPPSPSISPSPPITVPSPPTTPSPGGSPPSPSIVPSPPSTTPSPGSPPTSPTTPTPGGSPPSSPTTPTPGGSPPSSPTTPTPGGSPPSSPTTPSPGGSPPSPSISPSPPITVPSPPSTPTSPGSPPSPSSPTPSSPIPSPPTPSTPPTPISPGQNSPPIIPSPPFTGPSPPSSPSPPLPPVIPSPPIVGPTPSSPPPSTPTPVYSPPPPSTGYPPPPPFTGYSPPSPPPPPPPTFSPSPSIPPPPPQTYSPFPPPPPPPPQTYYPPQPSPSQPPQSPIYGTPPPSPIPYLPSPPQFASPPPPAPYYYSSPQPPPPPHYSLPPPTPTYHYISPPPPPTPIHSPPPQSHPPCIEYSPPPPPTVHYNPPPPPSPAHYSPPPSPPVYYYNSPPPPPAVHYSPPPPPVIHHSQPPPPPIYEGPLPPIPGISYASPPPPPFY
Chain of UniProt O65375 (O65375 27-744, stated change not applied): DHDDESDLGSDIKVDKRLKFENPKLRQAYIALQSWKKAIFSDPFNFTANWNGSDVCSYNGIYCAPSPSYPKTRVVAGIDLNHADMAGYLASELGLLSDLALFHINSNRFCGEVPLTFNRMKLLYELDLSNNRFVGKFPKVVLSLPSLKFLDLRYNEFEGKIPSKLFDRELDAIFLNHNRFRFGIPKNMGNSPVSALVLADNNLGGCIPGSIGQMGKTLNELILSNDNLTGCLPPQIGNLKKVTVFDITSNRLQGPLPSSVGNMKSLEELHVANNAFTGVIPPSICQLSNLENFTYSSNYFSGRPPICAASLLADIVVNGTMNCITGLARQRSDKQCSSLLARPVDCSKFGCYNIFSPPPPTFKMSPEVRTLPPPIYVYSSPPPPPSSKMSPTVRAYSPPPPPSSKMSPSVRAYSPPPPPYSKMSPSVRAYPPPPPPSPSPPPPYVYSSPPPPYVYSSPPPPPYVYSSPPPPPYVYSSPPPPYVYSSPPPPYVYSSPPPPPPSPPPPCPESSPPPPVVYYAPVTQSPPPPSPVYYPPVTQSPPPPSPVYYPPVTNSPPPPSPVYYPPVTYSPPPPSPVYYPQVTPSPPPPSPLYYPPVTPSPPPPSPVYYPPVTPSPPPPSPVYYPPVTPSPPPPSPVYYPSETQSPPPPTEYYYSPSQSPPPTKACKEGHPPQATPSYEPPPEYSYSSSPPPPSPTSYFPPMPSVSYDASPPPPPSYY

B1: RALF1, in vitro synthesized peptide (peptide)
peptide: ATTKYISYQSLKRNSVPCSRRGASYYNCQNGAQANPYSRGCSKIARCRS
5 nM: [1] | [2] | [3]

Reference: publication doi:10.1101/783266
